Measured values reported in patent US20170349943, “METHODS FOR DETECTING ENHANCED NMDA RECEPTOR FUNCTION AND USES THEREOF” (INOVA HEALTH SYSTEM, published 2017).

Target: T1, Elk-1 (Homo sapiens, UniProt P19419 P19419:1-428)
T1 sequence: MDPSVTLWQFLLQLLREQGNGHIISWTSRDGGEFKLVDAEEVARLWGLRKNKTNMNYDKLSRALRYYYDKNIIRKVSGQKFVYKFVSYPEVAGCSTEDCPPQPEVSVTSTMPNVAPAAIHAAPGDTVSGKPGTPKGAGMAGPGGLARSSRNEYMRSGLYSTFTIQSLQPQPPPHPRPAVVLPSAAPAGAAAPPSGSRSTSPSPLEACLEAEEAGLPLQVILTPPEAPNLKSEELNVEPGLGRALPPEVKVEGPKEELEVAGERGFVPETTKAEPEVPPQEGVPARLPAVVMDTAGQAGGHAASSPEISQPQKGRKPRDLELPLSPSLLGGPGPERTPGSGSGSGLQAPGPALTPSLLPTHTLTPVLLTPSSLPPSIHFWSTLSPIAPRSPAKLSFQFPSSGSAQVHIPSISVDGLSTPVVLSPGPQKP
Assay: EMSA; bound to a greater extent than G allele; 50 mM HEPES pH 7.5, 10 mM MgCl2, on ice 1 h, then Elk-1 antibody
Settings: tags: recombinant human Elk-1, Sigma Aldrich
Method: FIG. 2 depicts binding of recombinant Elk-1 protein (an ETS transcription factor) to double stranded DNAs containing the single nucleotide polymorphism (SNP) rs3764030 variant A allele from the human GRIN2B gene promoter. Double-stranded DNA targets (Methods) were sequentially incubated with 1 μg recombinant human Elk-1 protein in EMSA buffer, then incubated with the Elk-1 antibody 20 minutes. […] Samples were electrophoresed through 6% polyacrylamide gels in HEPES buffer pH 6.3, without polydldC. The gel was then stained with the SYBR Green to visualize DNA and SYPRO Ruby for protein bound to DNA. The stained gel was scanned using G:BOX (Syngene, US) for imaging. Elk-1 bound to DNA is indicated by the arrow.
The complementary pairs of DNA oligonucleotides were first annealed in Biorad C1000 thermocycler with 1° C./1 min decreasing from 95° C. to 20° C. The annealing buffer composition was 10 mM Tris-HCl pH 8.0, 1 mM EDTA and 50 mM NaCl. The annealed dsDNA was then incubated with 1 μg recombinant human Elk-1 protein (Sigma Aldrich, US) on ice for 1 hour in EMSA buffer, then incubated with the Elk-1 antibody (SC-355)(Santa Cruz Technology, US) 20 minutes in room temperature. The compositions of EMSA buffer was 50 mM HEPES pH7.5, 10 mM MgCl₂, 5% glycerol, 1 mM DTT, 0.3% BSA and 1 mM EDTA. […]

B1: GRIN2B promoter rs3764030 A allele probe (dsDNA)
DNA 1: CATCTCCGGGGAACACGCGAA
DNA 2: TTCGCGTGTTCCCCGGAGATG
binding result: binds
